This passage reports protein production results from a protein production outcome set (Wang et al. 2014).

A short description of this data set: label from the status in PepcDB records.
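Also: failed if final PepcDB status was selected cloned or expressed and not failed if soluble or beyond.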

With “GKFGFNDAVGHPKTLKGAAYGRFANSFNLANNKISMDPDGNWMNKIYNEAELAEMDGLNYNWLDEAWSGAFTMNHSVNVSGGSEKATYFAGASYYTQGANLGKQDYNRWNFRAGVDIKLTSDLKFSATIAGNQQETTSSFTKGLSNLNGYGGTKPGESGDYLVLAHMPNYLPWEITLDDGNTYYTSPLLNSYSSAGNATSGNKMSTWNYFAMENNDGSYSTNDNFSYDANFSVTYAVPFIKGLSFKGSYALKRSASDSEQAFMPFTLAYLKASDALTPGNRFYSDHPSVSDYQLKEFTGSTRVVYSDQMAKNEQLNFYVNYEGKFGKHSIAAMAAVEKMQAYMHSKRMLFNNPDPDGYLGTSPSAGAMDTGNSITYKYKQGSLSYLGRVSYNYADKYLFQFLFRSDASTKFAPANYWGFFPGVSVGWVASEEEFMKKLLPSWFEYMKVRFSWGRTGKDNIKAWGWKQLYSLDPSRGYGFGSNGGILQTGIKPGATPNPDAHWDNTDKFNLGFDLRFLNNRLSATVDVYYDINSDILNQNIGGIIGTPIFAGGALTEVNFGRIDAFGSEFSLNWRDKIDQVKYNIGVNFGFNGNRVREWPQSAPSYIQENSVREGASTIFPTYGYKVWRGTSSGDGILRNSDDIENYWNYLSANAEAAGTSPEYLGVKDASQLKPGMLAYQDLGGVLNEDGTQSGPDGRIAKTQDYAKLNKSGKTYGFTTKLGAEWKGISFNMMIATSWGGYRQIDVNKITTSSGDMLWTPDSFWEDMFDERNNTTGKYPNLGLDNRISGSVIAPSDFWSISTFRCYIRNLSIGYTLPKAWLSPLKIQSAKLSLTGNNLW”, the protein production entry is reported as “failed”.

On to “GKGKNIIVLHLESFQQFLIDYKLKEGDKEYEVTPFINSLYHSNATLAFPNFFHQVKAGKTSDAETMMENSLFGLNSGSFMVNYGGENTQFATPSILAQKGGYTSAVFHGNVGTFWNRNNAYKQWGYNYFFDSSYFSKQNSKNSFQYGLNDKYMFKDSIKYLEQMQQPFYTKFITVSNHYPYTSLKGESSEEGFPLAKTDDETINGYFATANYLDAALKSFFDYLKATGLYDNSIFVLYGDHYGISNSRNSSLAPLLGKDSETWSEYDNAMLQRVPYMIHIPGYTNGSIKETFGGEIDALPTLLHILGIDTSQFVQLGQDLLSPQNSQIVAQRTSGTYMTPEYTNYSGRLYNTQTGLEIT”, for which the protein production entry is reported as “failed”.

Take “GKLFEPYEHMVIDIPSEYQGNVTQLMAARKGQMLSMDNISDEWVRMEYKVPARGLISFRTMFMTETRGTGIANSYSEGLDEWAGEIKGRATGSLVADRSGQITAYALQQLADRGNFFVEPGTE”: the protein production result is “failed”.

For “GKVSIPSIVYDIVRKNGGNKILLVGNGMLASEIAPYFSYPQYKVTVAGRNIDHVRAFAEKYEYEYVLINDIDSLIKNNDVIITATSSKTPIVEERSLMPGKLFIDLGNPPNIERGNNVITLDEIYEISKKNEMLREEKINQ”, the protein production entry is recorded as “not failed”.

Regarding “GLGGFTRTRNKGKSNVIDMIQKYIESKGMPIENWDITVGYCTNLEEAEKYRDDVEAQLGVKLLERREDFKTRISIISGCHTGPYALGIACIPKYTTIRL”, the protein production entry is “not failed”.

For “GLINTHAHVGMSASKGLFDDVDLDSFLKKTFEYDSDRTSTGIFNSAKLGMYEMIGNGITAFVDLYYSEDIIAKAAEEIGIRAFLSWVTLDKELTTQIGDPVENAENFIRNHVGNKYVVPSVGVQGIYVANDDTFRRAMDLAEKYGTILHMHLSETRKEVYDAVKKLGERPIEHLHNIGILNKRVLAAHCVWATYHEVRLLSKDGVNVSWNSISNFKLGTGGIPPIPEMMRENVNVTIGTDSNGSNNSLDMFQAMKFSAISVKNYRWDASLMKAQEILDMATRNAARALQLNAG”, the protein production entry is given as “failed”.

As to “GMEGLVMNTRRALFADWRVREAMLLAFDFDLINRTLTGGAEPRIASYFSNSALGMEAGAPATGRERALLEPFAADLLPGTLDGYALPATHGASNRGNLRKAARLLSEAGWRIEDGMLEGPGGTPFAFEILLPQGADAMIAASIIYRQALTRLGISARITTVDPAQFKQRVDNQDFDMTSFLRSLTLSPGNEQLLYWSAEDKDLPGSRNLMGMESPAAEAVIRHMLATDDAEEFQASVRALDRVLTAGRYVIPMWYSR”, the protein production result is “failed”.

Consider “GMTTRVLALDALVPIVAADNPVPRVSTPDLARALSGEISNWKELGGPDMPLVLHALARDISLEAALEARLGRPIAAEITHPDLASLAAAVARDPYALAITGQTARGAARVLPLTDSCGFPLVPSPLAVKSED”, for which the protein production entry is “failed”.

As for “GNPKLKDLYIRPNIVTKRMTGSLEAHSNGFRYISVRGDKVDILYNNIKSAFFQPCDGEMIILLHFHLKYAIMFGKKKHVDVQFYTEVGEITTDLG”, the protein production entry is given as “failed”.

“GQYALTNGDPLNGHCYLSGYISLLLRAEPYPTSRYGSQCMQPNNIMGIENICELAARLLFSAVEWARNIPFFPDLQITDQVSLLRLTWSELFVLNAAQCSMPLHVAPLLAAAGLHASPMSADRVVAFMDHIRIFQEQVEKLKALHVDSAEYSCLKAIVLFTSDACGLSDAAHIESLQEKSQCALEEYVRSQYPNQPSRFGKLLLRLPSLRTVSSSVIEQLFFVRLVGKTPIETLIRDMLLSGSSFNWPYMSIQCS”: the protein production result was “failed”.

Take “GRAPRNGEKVLVEFVSANPTGPLHVGHARQAALGDAICRLYDASGWDVTREFYYNDAGNQIDNLAISVQARGRGIAPDAPDYPADGYKGDYIVEIARDFAARKSVQASDGQPVTATGDLDSLDDIRAFAVAYLRREQDLDLQAFGLAFDNYFLESSLYASGRVQETVDTLVAKGHTYEEGGALWLRTTELGTGDDKDRVMRKSEGGYTYFVPDVAYHKVKWERGFHHAVNIQGSDHHGTVARVRAGLQGLAGIPKDFPAYVLHKMVKVMRGGEEVKISKRAGSYVTMRDLIDWVGRDAVRYFLIQRRADTEFVFDIDLALSKSDENPVYYIQYAHARICTMIGNSGA”: the protein production entry is reported as “failed”.

Turning to “GRLRTDAVRAFCTTIVEATAPYACAFKPNFAFFEALGPAGLTVLDQVVTTIPDDCLVLGDAKRGDIGHSARHYAASIYEELGLDACTVSPYLGRDSVMPFLEHEGTCTFVLARTSNDGAADLQEACTCDGTPLYRHVARRVQAWNADAPGGAGLVVGATAPAALQDLRSLCPSLPFLVPGVGAQGGDAAAVMDAAATDEGPVLVNSSRSILYASEGPNYANAAADAARALRDALNG”, the protein production entry was “failed”.

As to “GSGATSAAGKPQETFLDFNESPYGPSAKARAAMQRAAALCGRYDYDAQDALVGLFAKQNGIPAECVHAYCGSRQPLQYAVAAFTGKERGLVIADPSYDSVVGAAQAQGAKVAAVPLDAEAAHDIERMLAAAQRDAGLIYICNPNNPTGTLTPHERIVRAIERKPERSVVLVDEAYIHFSDAPSVVGLAVQRQDVLVLRTFSKLYGMAGARLGLAIGHPQLLARLERFGGHNVVPSPTAHAGLESLRDDDLVPRRKQQNAEVRERTIAWLRQQGFRCTASQSNCFMVDMRRPAELVIAELEKQRVHVGRPWASWPNWVRVTVGSEEEMQAFR”, the protein production result is on record as “failed”.

For “GSPDPEIFRQRFRQFGYQDSPGPREAVSQLRELCRLWLRPETHTKEQILELVVLEQFVAILPKELQTWVRDHHPENGEEAVTVLEDLESELDD”, the protein production result was “not failed”.

As to “GSSGSSGMDEDVLTTLKILIIGESGVGKSSLLLRFTDDTFDPELAATIGVDFKVKTISVDGNKAKLAIWDTAGQERFRTLTPSYYRGAQGVILVYDVTRRDTFVKLDNWLNELETYCTRNDIVNMLVGNKIDKENREVDRNEGLKFARKHSMLFIEASAKTCDGVQCAFEELVEKIIQTPGLWESENQNSGPSSG”, the protein production result is “not failed”.

Consider “GSSGSSGNWIDVRYDLEKIESLIQSIHIDTTLYTDSDFHPSCKVTAMNCFLLELQVILHEYSNMTLNETVRNVLYLANSTLSSNKNVAESGCKECEELEEKTFTEFLQSFIRIVQMFINTS”, for which the protein production result is “not failed”.

Take “GVDRWPEYYPETGRDIWIDSVMRQEYLWYRDMPSPAAPDYFQKPEAFLKKAVASMDNGFSKIDSLLDEPIPSYGFDYTLYKVLDNDTAYNALISYVVPGSPAEEAGLQRGHWIMMMNGDYITKKVESELLQGSTRQLQIGVYKEVVGEDGEVTGGVVPIGETTMPASRSLVDKPVHRFEIIPWNGKKVGYLMYNEFKAGPTTDSQAYNDDLRRAFRDFQTGGVNEFVLDLRYNTGGSLDCAQLLCTMLAPADKMNQLLALLRYSDKRVEANQDLTFNPELIQSGANLNLSTVYVLTTNATRGAAEMVINCLNPYMKVVLIGTKTAGEYVATKPFVHPTDRFILNLVVCNVYNAEEKSDYATGFKPTYEYNEDSYLSTYLPFGNTNETLLNAALKIMSGITDK”: the protein production result is listed as “not failed”.

Regarding “GYAVSVRVGGKEHRHWERYDIDSDFLIPADSFDFVIGRLGPEAAIPDLSGESCEVVIDGQIVMTGIIGSQRHGKSKGSRELSLSGRDLAGFLVDCSAPQLNVKGMTVLDAAKKLAAPWPQIKAVVLKAENNPALGKIDIEPGETVWQALTHIANSVGLHPWLEPDGTLVVGGADYSSPPVATLCWSRTDSRCNIERMDIEWDTDNRFSEVTFLAQSHGRSGDSAKHDLKWVYKDPTMTLHRPKTVVVSDADNLAALQKQAKKQLADWRLEGFTLTITVGGHKTRDGVLWQPGLRVHVIDDEHGIDAVFFLMGRRFMLSRMDGTQTELRLKEDGIWTPDAYPK”, the protein production entry is “not failed”.

Turning to “HDVIFHIRAKGKNQKLLLSAHPSYSRVHITAQAYENPSEPPMFCMLLRKHIEGGFIEKIEQAGLDRIMIFHIKSRNEIGDETVRKLYVEIMGRHSNIILTDAAENVIIDGLKHLSPSMNSYRTVLPGQDYKLPPAQDKISPLEASEDDILRHLSFQEGRLDKQIVDHFSGVSPLFAKEAVHRAGLANKVTLPKALLALFAEVKEHRFIPNITTVNGKEYFYLLELTHLKGEARRFDSLSELLDRFYFGKAERDRVKQQAQDLERFVVNERKKNANKIKKLEKTLEYSENAKEFQLYGELLTANLYMLKKGD”, the protein production entry is “failed”.

As to “HGEQSYSIGILTDITMTKMYEVLQYKVLEALILERPLDEVMTMLCHEVERIAPEVTASILQSIGQNHLSHLAGPSLPPAYTAVISSVPISPIAGSCGTAAFRKEAVEVQDIATDPLWDNYRHLILPHGLLACWSTPIISSQGQLLGTFAFYYRQIRSPSDFHRQLVKLIANLCSLAMERELSRKQIQHLAFYDS”, the protein production result is “failed”.

As for “HKEDKEDFAELSGIAVPAEITAEDGTMFKEALLFTHRGLSGPSVLQISSFWKAGQKVSINLVPNEDIALLLERSLEKHPNQSLKNTLAKVLPKRLVEVLIERKELMDKPLKQFNPKELASVVERLENWSIAPNGTEGYRTAEVTLGGVDTDHLSSKTMECKNIKGLYFIGEVMDVTGWLGGYNFQWCWSSGFVAGQWV”, the protein production result is reported as “failed”.

Take “HLGEVQSEVVRFAVRFPSDKEQSSLLIDADAPVYDFVRLRLLNGEPVSLDLTVMPVGLVPGLTKSHLEGSVFRYVQETLGLKLMGSYRVVRAMKPGELDKQHLHCEPTDPVLEVEQVIYLEDGTPLEYAHCHYRYDHGG”: the protein production result is listed as “not failed”.

As to “HPHIQLLKSNRELLVTHIRNTQCLVDNLLKNDYFSAEDAEIVCACPTQPDKVRKILDLVQSKGEEVSEFFLYLLQQLADAYVDLRPWLLEIGFS”, the protein production result is reported as “not failed”.

Take “HRMDAVEVTLFEKETRVAAHQTGHNSGVVHAGLYYLPGSLKARLCRRGVTLLQQYAENKGVAYEECGKVVVAHDSSEVARMDAIFDRAVANGVPGIRKVAGEEIPEIEPHARGVAAVHSPHTAIIDYVAVAEALAADITAAGGRVLLGREVVGLDSRTAETVVTTGQGSEVFDLVVTCAGLQSDRVALMSGEPRSPRVVPFFGDYFLLEPERSSLVKGLIYPVPDPRYPFLGVHLTKRIDGRIMLGPNAFLSF”: the protein production entry is “failed”.

With “HVAGHHLAPTIIAADQHWLLVNWLEGDVVTHAQFIELSNNGQLAQLLTRLHHLPASGYRLDLRAQLIRYAGQIDTKRLSPSWLRLHQHFQRRSPPQPVKLAPLHMDIHPGNLLATPSGLKLIDWEYAADGDIALDIAALFRGNGWSAPQQQAFLQHYCLNEQGYPDIDRLSRQIQRWVPWVDYLMLMWFEVRWQQTGD”, the protein production entry is recorded as “failed”.
